Molecular target: human serum albumin (HSA) (Homo sapiens, UniProt P02768 25-609)
Assay: graphene oxide fluorescence recovery (competition with GO quencher); PBS; PBS or PBS with 2% (w/v) boric acid, ambient temperature, 5 mg/L GO stock, 30 min with HSA in the dark; pH not given
Conditions: protein: commercial; label: 5'-Cy5

Chain of human serum albumin (HSA) (P02768 25-609): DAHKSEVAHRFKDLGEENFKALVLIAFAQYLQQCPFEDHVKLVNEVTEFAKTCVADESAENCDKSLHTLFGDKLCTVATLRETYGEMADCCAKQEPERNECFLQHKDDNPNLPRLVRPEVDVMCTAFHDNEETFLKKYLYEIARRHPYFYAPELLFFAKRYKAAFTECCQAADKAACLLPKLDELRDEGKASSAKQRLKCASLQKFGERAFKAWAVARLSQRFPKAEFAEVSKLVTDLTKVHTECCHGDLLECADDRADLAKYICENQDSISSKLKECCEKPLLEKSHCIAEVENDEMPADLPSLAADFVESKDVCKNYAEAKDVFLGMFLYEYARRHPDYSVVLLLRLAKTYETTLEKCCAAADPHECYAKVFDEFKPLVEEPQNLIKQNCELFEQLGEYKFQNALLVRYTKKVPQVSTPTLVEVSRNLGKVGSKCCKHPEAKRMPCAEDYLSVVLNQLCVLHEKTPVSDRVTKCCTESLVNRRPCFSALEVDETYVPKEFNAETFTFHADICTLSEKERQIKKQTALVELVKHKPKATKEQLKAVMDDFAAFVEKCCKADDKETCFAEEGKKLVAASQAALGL

B1: H8 aptamer (ssDNA)
DNA: ATACCAGCTTATTCAATTCCCCCGGCTTTGGTTTAGAGGTAGTTGCTCATTACTTGTACGCTCCGGATGAGATAGTAAGTGCAATCT
binding result: binds

Reference: publication PMC9687920, “Effects of Boric Acid and Storage Temperature on the Analysis of Microalbumin Using Aptasensor-Based Fluorescent Detection”
